The supplement of paper PMC10567573

B1: SNURF (parent)
chain: QVPVVDFQAELRQAFLAETPRGG
B2: MATN2 (parent)
chain: FIVDILQFLDIGPDVTRVGLLQYG
B3: CROP (parent)
chain: VFGRGDNISDVSKFLEDDKWMEE
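Also: lentivirally expressed fusions sorted by FACS into six bins by GFP to DsRed ratio, PSI derived from sequencing read proportions per bin multiplied by bin number.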

Variants of: B1
Assay: protein stability index of a GFP-peptide fusion (GPS, HEK-293T) (PSI 1-6); higher = more stable
Settings: c terminus: native
QVPVVDFTAELRQAFLAETPRGG [Q8T] showed a protein stability index of 3.31.
Variant QVPVVDFLAELRQAFLAETPRGG [Q8L] has a protein stability index of 3.47.
For QVPVVDFKAELRQAFLAETPRGG [Q8K], the protein stability index was 5.19.
Variant QVPVVDFVAELRQAFLAETPRGG [Q8V] has a protein stability index of 1.43.
In the case of QVPVVDFYAELRQAFLAETPRGG [Q8Y], the protein stability index is reported as 2.98.
Variant QVPVVDFCAELRQAFLAETPRGG [Q8C] has a protein stability index of 3.49.
For QVPVVDFQAELRQAFLAETPRGE [G23E], the protein stability index was 1.85.
With QVPVVDFQAELRQAFLAETPRGM [G23M] the protein stability index was 1.71.
QVPVVDFQAELRQAFLAETPRGI [G23I] gave a protein stability index of 2.06.
In the case of QVPVVDFQAELRQAFLAETPRGL [G23L], the protein stability index is reported as 3.09.
QVPVVDFQAELRQAFLAETPRGC [G23C] showed a protein stability index of 1.66.
QVPVVDFQAELRQAFLAETPRGS [G23S] showed a protein stability index of 3.16.
In the case of QVPVVDFQAELRQAFLAETPRGK [G23K], the protein stability index is reported as 4.37.
Work on QVPVVDFQAELRQAFLAETPRGQ [G23Q] yielded a protein stability index of 2.42.
In the case of QVPVVDFQAELRQAFLAETPRGN [G23N], the protein stability index is reported as 1.92.
Variant QVPVVDFQAELRQAFLAETPRGV [G23V] has a protein stability index of 2.52.
QVPVVDFQAELRQAFLAETPRGY [G23Y] gave a protein stability index of 3.06.
QVPVVDFQAELRQAFLAETPRGD [G23D] showed a protein stability index of 3.97.
Variant QVPVVDFQAELRQAFLAETPRGT [G23T] has a protein stability index of 3.93.
With QVPVVDFQAELRQAFLAETPRGF [G23F] the protein stability index was 2.27.
QVPVVDFQAELRQAFLAETPRGA [G23A] showed a protein stability index of 2.38.
In the case of QVPVVDFQAELRQAFLAETPRGW [G23W], the protein stability index is reported as 1.5.
In the case of QVPVVDFQAELRQAFLAETPRGH [G23H], the protein stability index is reported as 1.77.
Work on QVPVVDFQAELRQARLAETPRGG [F15R] yielded a protein stability index of 1.95.
QVPVVDFQAELRQAKLAETPRGG [F15K] gave a protein stability index of 2.48.
QVPVVDFQAELRQAELAETPRGG [F15E] gave a protein stability index of 2.82.
Work on QVPVVDFQAELRQAGLAETPRGG [F15G] yielded a protein stability index of 3.47.
With QVPVVDFQAELRQAWLAETPRGG [F15W] the protein stability index was 2.83.
In the case of QVPVVDFQAELRQATLAETPRGG [F15T], the protein stability index is reported as 3.19.
Work on QVPVVDFQAELRQAYLAETPRGG [F15Y] yielded a protein stability index of 1.94.
QQPVVDFQAELRQAFLAETPRGG [V2Q] gave a protein stability index of 1.5.
With QKPVVDFQAELRQAFLAETPRGG [V2K] the protein stability index was 3.98.
With QGPVVDFQAELRQAFLAETPRGG [V2G] the protein stability index was 2.61.
Variant QVPLVDFQAELRQAFLAETPRGG [V4L] has a protein stability index of 2.5.
Variant QVPAVDFQAELRQAFLAETPRGG [V4A] has a protein stability index of 3.33.
With QVPFVDFQAELRQAFLAETPRGG [V4F] the protein stability index was 3.43.
QVPTVDFQAELRQAFLAETPRGG [V4T] gave a protein stability index of 2.69.
In the case of QVPWVDFQAELRQAFLAETPRGG [V4W], the protein stability index is reported as 2.09.
Work on QVPMVDFQAELRQAFLAETPRGG [V4M] yielded a protein stability index of 3.48.
QVPVVDFQAELYQAFLAETPRGG [R12Y] showed a protein stability index of 3.86.
QVPVVDFQAELNQAFLAETPRGG [R12N] gave a protein stability index of 2.92.
With QVPVVDFQAELMQAFLAETPRGG [R12M] the protein stability index was 3.51.
Variant QVPVVDFQAELPQAFLAETPRGG [R12P] has a protein stability index of 2.89.
For QVPVVDFQAELQQAFLAETPRGG [R12Q], the protein stability index was 3.27.
In the case of QVPVVDFQAELEQAFLAETPRGG [R12E], the protein stability index is reported as 2.54.

Variants of: B2
Assay: as above
Settings: c terminus: a fixed tail appended
FIVDILQFLDIGPDVTRVGLLQYF [G24F] showed a protein stability index of 3.31.
FIVDILQFLDIGPDVTRVGLLQYA [G24A] gave a protein stability index of 2.27.
FIVDILQFLDIGPDVTRVGLLQYH [G24H] gave a protein stability index of 3.37.
FIVDILQFLDIGPDVTRVGLLQYK [G24K] showed a protein stability index of 1.81.
FIVDILQFLDIGPDVTRVGLLQYR [G24R] gave a protein stability index of 2.18.
In the case of FIVDILQFLDIGPDVTRVGLLQYI [G24I], the protein stability index is reported as 3.62.
FIVDILQFLDIGPDVTRVGLLQYL [G24L] gave a protein stability index of 4.05.
Work on FIVDILQFLDIGPDVTRVGLLQYW [G24W] yielded a protein stability index of 3.04.
FIVDILQFLDIGPDVTRVGLLQYE [G24E] gave a protein stability index of 1.99.
FIVDILQFLDIGPDVTRVGLLQTG [Y23T] showed a protein stability index of 3.99.
Variant FIVDILQFLDIGPDVTRVGLLQRG [Y23R] has a protein stability index of 3.61.

Variants of: B3
Assay: as above
Settings: c terminus: native
Variant VFDRGDNISDVSKFLEDDKWMEE [G3D] has a protein stability index of 2.21.
With VFKRGDNISDVSKFLEDDKWMEE [G3K] the protein stability index was 1.44.
VFCRGDNISDVSKFLEDDKWMEE [G3C] showed a protein stability index of 2.48.
Variant VFMRGDNISDVSKFLEDDKWMEE [G3M] has a protein stability index of 1.51.
Variant VFPRGDNISDVSKFLEDDKWMEE [G3P] has a protein stability index of 2.84.
Work on VFARGDNISDVSKFLEDDKWMEE [G3A] yielded a protein stability index of 2.83.
Variant VFHRGDNISDVSKFLEDDKWMEE [G3H] has a protein stability index of 1.88.
VFFRGDNISDVSKFLEDDKWMEE [G3F] showed a protein stability index of 1.44.
Work on RFGRGDNISDVSKFLEDDKWMEE [V1R] yielded a protein stability index of 2.37.
Work on SFGRGDNISDVSKFLEDDKWMEE [V1S] yielded a protein stability index of 2.11.
With QFGRGDNISDVSKFLEDDKWMEE [V1Q] the protein stability index was 3.
In the case of IFGRGDNISDVSKFLEDDKWMEE [V1I], the protein stability index is reported as 1.43.
Work on DFGRGDNISDVSKFLEDDKWMEE [V1D] yielded a protein stability index of 3.13.
PFGRGDNISDVSKFLEDDKWMEE [V1P] showed a protein stability index of 2.76.
Work on AFGRGDNISDVSKFLEDDKWMEE [V1A] yielded a protein stability index of 2.11.
WFGRGDNISDVSKFLEDDKWMEE [V1W] showed a protein stability index of 3.69.
EFGRGDNISDVSKFLEDDKWMEE [V1E] showed a protein stability index of 2.97.
Variant KFGRGDNISDVSKFLEDDKWMEE [V1K] has a protein stability index of 2.73.
CFGRGDNISDVSKFLEDDKWMEE [V1C] showed a protein stability index of 1.97.
For LFGRGDNISDVSKFLEDDKWMEE [V1L], the protein stability index was 2.48.
In the case of HFGRGDNISDVSKFLEDDKWMEE [V1H], the protein stability index is reported as 2.59.
Work on NFGRGDNISDVSKFLEDDKWMEE [V1N] yielded a protein stability index of 2.25.
GFGRGDNISDVSKFLEDDKWMEE [V1G] gave a protein stability index of 3.63.
MFGRGDNISDVSKFLEDDKWMEE [V1M] gave a protein stability index of 1.84.
VDGRGDNISDVSKFLEDDKWMEE [F2D] gave a protein stability index of 3.87.
VNGRGDNISDVSKFLEDDKWMEE [F2N] gave a protein stability index of 2.87.
For VEGRGDNISDVSKFLEDDKWMEE [F2E], the protein stability index was 4.33.
In the case of VKGRGDNISDVSKFLEDDKWMEE [F2K], the protein stability index is reported as 2.16.
VLGRGDNISDVSKFLEDDKWMEE [F2L] showed a protein stability index of 1.97.
With VVGRGDNISDVSKFLEDDKWMEE [F2V] the protein stability index was 2.64.
With VPGRGDNISDVSKFLEDDKWMEE [F2P] the protein stability index was 2.66.
Variant VAGRGDNISDVSKFLEDDKWMEE [F2A] has a protein stability index of 2.88.
With VWGRGDNISDVSKFLEDDKWMEE [F2W] the protein stability index was 2.85.
VHGRGDNISDVSKFLEDDKWMEE [F2H] gave a protein stability index of 3.4.
VYGRGDNISDVSKFLEDDKWMEE [F2Y] gave a protein stability index of 1.66.
With VGGRGDNISDVSKFLEDDKWMEE [F2G] the protein stability index was 2.79.
For VTGRGDNISDVSKFLEDDKWMEE [F2T], the protein stability index was 3.29.
For VCGRGDNISDVSKFLEDDKWMEE [F2C], the protein stability index was 3.7.
VIGRGDNISDVSKFLEDDKWMEE [F2I] gave a protein stability index of 1.8.
With VQGRGDNISDVSKFLEDDKWMEE [F2Q] the protein stability index was 2.99.
Variant VSGRGDNISDVSKFLEDDKWMEE [F2S] has a protein stability index of 2.83.
